B1: hCTLA4.27H1L1 (antibody, human IgG4 S228P, kappa, V domains shown)
VH: EVQLLQSGAVLARPGTSVKISCKASGYSFTTYWMNWVKQRPGQGLEWIGMIHPSDSETSLNQAFKDKAKLTAATSASIAYLEFSSLTNEDSAVYYCARMGRRNPYYFDYWGQGTLVTVSS
VL: DIQMTQSPSSLSASVGDRVTITCRPSENLYTNLAWYQQKPGKAPKLLLYGATNLADGVPSRFSGSGSGTDYTLTISSLQPEDFATYYCQHLWGTPFTFGQGTKLEIKR
notes: Humanized, human IgG4 (S228P) kappa; H1 read as hCTLA4.27VH1, L1 as hCTLA4.27VL1
B2: hCTLA4.27H2L2 (antibody, human IgG4 S228P, kappa, V domains shown)
VH: EVQLVQSGAVLVKPGASVKVSCKASGYSFTTYWMNWVRQRPGKGLEWIGMIHPSDSETSLNQAFKDKVTITADESTSTAYMQLSSLRSEDTAVYYCARMGRRNPYYFDYWGQGTTVTVSS
VL: B1 VL with L48I, D70E, Y71F, T72S, T74S, Q100G, L104V
notes: Humanized, human IgG4 (S228P) kappa; H2 read as hCTLA4.27VH2, L2 as hCTLA4.27VL2
B3: hCTLA4.27H3L1 (antibody, human IgG4 S228P, kappa, V domains shown)
VH: B2 VH with L11V, V12A, A16S, R40A, K43Q, I48M, K67R, E74K, Q82E, R87T
VL: B1 VL
notes: Humanized, human IgG4 (S228P) kappa; H3 read as hCTLA4.27VH3, L1 as hCTLA4.27VL1
B4: hCTLA4.27H6L2 (antibody, human IgG4 S228P, kappa, V domains shown)
VH: B1 VH with Q6E, A9P, V10E, A12V, T16S, Q43K, A68V, T87R
VL: B1 VL with L48I, D70E, Y71F, T72S, T74S, Q100G, L104V
notes: Humanized, human IgG4 (S228P) kappa; H6 read as hCTLA4.27VH6, L2 as hCTLA4.27VL2
B5: hCTLA4.27H4L2 (antibody, human IgG4 S228P, kappa, V domains shown)
VH: EVQLVQSGAEVKKPGASVKVSCKASGYSFTTYWMNWVRQAPGQGLEWMGMIHPSDSETSLNQAFKDRVTMTRDTSTSTVYMELSSLRSEDTAVYYCARMGRRNPYYFDYWGQGTLVTVSS
VL: B1 VL with L48I, D70E, Y71F, T72S, T74S, Q100G, L104V
notes: Humanized, human IgG4 (S228P) kappa; H4 read as hCTLA4.27VH4, L2 as hCTLA4.27VL2
B6: hCTLA4.27H2L5 (antibody, human IgG4 S228P, kappa, V domains shown)
VH: B2 VH
VL: B1 VL with S7A, P80A, Q100G
notes: Humanized, human IgG4 (S228P) kappa; H2 read as hCTLA4.27VH2, L5 as hCTLA4.27VL5
B7: hCTLA4.27H4L1 (antibody, human IgG4 S228P, kappa, V domains shown)
VH: B5 VH
VL: B1 VL
notes: Humanized, human IgG4 (S228P) kappa; H4 read as hCTLA4.27VH4, L1 as hCTLA4.27VL1
B8: hCTLA4.27H5L5 (antibody, human IgG4 S228P, kappa, V domains shown)
VH: B1 VH with S7A, Q43K, M99I
VL: B1 VL with S7A, P80A, Q100G
notes: Humanized, human IgG4 (S228P) kappa; H5 read as hCTLA4.27VH5, L5 as hCTLA4.27VL5
B9: hCTLA4.27H5L1 (antibody, human IgG4 S228P, kappa, V domains shown)
VH: B1 VH with S7A, Q43K, M99I
VL: B1 VL
notes: Humanized, human IgG4 (S228P) kappa; H5 read as hCTLA4.27VH5, L1 as hCTLA4.27VL1
B10: hCTLA4.27H1L5 (antibody, human IgG4 S228P, kappa, V domains shown)
VH: B1 VH
VL: B1 VL with S7A, P80A, Q100G
notes: Humanized, human IgG4 (S228P) kappa; H1 read as hCTLA4.27VH1, L5 as hCTLA4.27VL5
B11: hCTLA4.27H4L3 (antibody, human IgG4 S228P, kappa, V domains shown)
VH: B5 VH
VL: B1 VL with R18T, P80S
notes: Humanized, human IgG4 (S228P) kappa; H4 read as hCTLA4.27VH4, L3 as hCTLA4.27VL3
B12: hCTLA4.27H3L3 (antibody, human IgG4 S228P, kappa, V domains shown)
VH: B5 VH with E10V, K12A, A16S, M70I, R72A, T74K, V79A, R87T, L115T
VL: B1 VL with R18T, P80S
notes: Humanized, human IgG4 (S228P) kappa; H3 read as hCTLA4.27VH3, L3 as hCTLA4.27VL3

Where a chain is given by its changes, count along the chain named. Names may count otherwise.

T1 sequence (P16410 36-223 Y201G/Y218G limits assumed): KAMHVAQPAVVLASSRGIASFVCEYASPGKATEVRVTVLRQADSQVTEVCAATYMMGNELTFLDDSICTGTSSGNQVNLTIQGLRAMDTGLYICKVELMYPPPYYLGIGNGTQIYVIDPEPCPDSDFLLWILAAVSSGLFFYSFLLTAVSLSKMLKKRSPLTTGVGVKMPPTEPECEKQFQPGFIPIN

The first experiment concerns the target T1, human CTLA-4 (Y166G and Y183G) expressed on CHO-K1.hCTLA-4 cells (human, UniProt P16410 36-223). In words: CELISA, blockade of biotinylated hCD80/Fc binding to CHO-K1.hCTLA-4 cells. As to the method:
CHO-K1.hCTLA-4 cells were seeded in tissue culture plates and incubated at 37° C., 5% CO₂ and 95% humidity in culture medium. Once the cells were confluent culture medium was removed and cells were incubated for 1 hour with the humanized hCTL4.27 antibody variants (10 μg/ml and dilutions thereof) at 37° C., 5% CO₂ and 95% humidity. […] Cells were then washed with PBST followed by addition of Streptavidin-HRP conjugate on the cells, which was incubated for 1 hour at 37° C., 5% CO₂ and 95% humidity. […] Reactions were stopped with 0.5 M H₂SO₄ and absorbances were read at 450 and 610 nm. […] IC50 values represent the concentration at which half of the inhibition is observed.
In general, IC50 refers to the concentration at which inhibition is half-maximal. A higher IC50 goes with weaker potency. With B1, the half-inhibitory concentration (IC50) came to 2.55 nM.
B2 had an IC50 of 2.59 nM. The IC50 values of the last two molecules are within 1.5-fold of each other.
The same measure, in the same setting: under B3 stands 2.52 nM.
B4 registered an IC50 of 1.8 nM.
The same measure, in the same setting: under B5 stands 2.52 nM.
On the same count and under the same terms, under B6 stands 2.72 nM; under B7, 3.33 nM; under B8, 1.91 nM.
As to B9, the 50% inhibitory concentration (IC50) was found to be 5.39 nM.
On to B10, for which the IC50 was 3.44 nM. Compared with the last molecule, the IC50 is about 1.6-fold lower.
The same measure, in the same setting: under B11 stands 3.26 nM.
Same read-out and setting: then B12, with 3.37 nM.

In another experiment the target is T1, human CTLA-4 (Y166G and Y183G) …. In words: CELISA on CHO-K1.hCTLA-4 cells. As to the method: Binding of the humanized antibodies to hCTLA-4 was studied in CELISA format. CHO-K1.hCTLA-4 cells were seeded in culture medium (DMEM-F12 (Gibco) with 10% Fetal Bovine Serum (Hyclone) and Pen/Strep (Gibco)) in tissue culture plates and cultured at 37° C., 5% CO₂ and 95% humidity until they were confluent. Subsequently, culture medium was removed and cells were incubated for 1 hour at 37° C., 5% CO₂ and 95% humidity with purified hCTLA-4 antibodies (10 μg/ml and dilutions thereof). Next, cells were washed with PBS/0.05% Tween (PBST) and incubated for 1 hour at 37° C., 5% CO₂ and 95% humidity with goat-anti-human IgG-HRP (Southern Biotechnology) or goat-anti-mouse IgG-HRP (Southern Biotechnology). Subsequently, cells were washed 3 times with PBST and anti-hCTLA-4 immunoreactivity was visualized with TMB Stabilized Chromagen (Invitrogen). Reactions were stopped with 0.5 M H₂SO₄ and absorbances were read at 450 and 610 nm.
One may read the EC50 as the concentration that produces a half-maximal response. Molecule B1 displayed a concentration for a half-maximal effect (EC50) of 0.037 nM.
In turn, B2 yielded an EC50 of 0.044 nM.
Still for that read-out and setting: then B3, with 0.07 nM; and B4, with 0.027 nM.
The same measure, in the same setting: then B5, with 0.047 nM.
Turning to B6, a half-maximal effect (EC50) was put at 0.045 nM.
Still for that read-out and setting: under B7 stands 0.07 nM.
In the case of B8, the concentration for a half-maximal effect (EC50) was found to be 0.035 nM. This EC50 is about 2-fold lower than that of the molecule before.
Turning to B9, it took 0.029 nM to reach a half-maximal effect (EC50).
The same measure, in the same setting: under B10 stands 0.046 nM; under B11, 0.051 nM.
Still for that read-out and setting: then B12, with 0.101 nM.

Values taken from patent publication US20180037654A1 (ADURO BIOTECH HOLDINGS EUROPE B V, published 2018).
